Test results from article PMC10786891, “Massively parallel profiling of RNA-targeting CRISPR-Cas13d”.

T1: EsCas13d, nuclease-dead (Eubacterium siraeum, UniProt B0MS50, R295A;H300A;R849A;H854A)
T1 sequence: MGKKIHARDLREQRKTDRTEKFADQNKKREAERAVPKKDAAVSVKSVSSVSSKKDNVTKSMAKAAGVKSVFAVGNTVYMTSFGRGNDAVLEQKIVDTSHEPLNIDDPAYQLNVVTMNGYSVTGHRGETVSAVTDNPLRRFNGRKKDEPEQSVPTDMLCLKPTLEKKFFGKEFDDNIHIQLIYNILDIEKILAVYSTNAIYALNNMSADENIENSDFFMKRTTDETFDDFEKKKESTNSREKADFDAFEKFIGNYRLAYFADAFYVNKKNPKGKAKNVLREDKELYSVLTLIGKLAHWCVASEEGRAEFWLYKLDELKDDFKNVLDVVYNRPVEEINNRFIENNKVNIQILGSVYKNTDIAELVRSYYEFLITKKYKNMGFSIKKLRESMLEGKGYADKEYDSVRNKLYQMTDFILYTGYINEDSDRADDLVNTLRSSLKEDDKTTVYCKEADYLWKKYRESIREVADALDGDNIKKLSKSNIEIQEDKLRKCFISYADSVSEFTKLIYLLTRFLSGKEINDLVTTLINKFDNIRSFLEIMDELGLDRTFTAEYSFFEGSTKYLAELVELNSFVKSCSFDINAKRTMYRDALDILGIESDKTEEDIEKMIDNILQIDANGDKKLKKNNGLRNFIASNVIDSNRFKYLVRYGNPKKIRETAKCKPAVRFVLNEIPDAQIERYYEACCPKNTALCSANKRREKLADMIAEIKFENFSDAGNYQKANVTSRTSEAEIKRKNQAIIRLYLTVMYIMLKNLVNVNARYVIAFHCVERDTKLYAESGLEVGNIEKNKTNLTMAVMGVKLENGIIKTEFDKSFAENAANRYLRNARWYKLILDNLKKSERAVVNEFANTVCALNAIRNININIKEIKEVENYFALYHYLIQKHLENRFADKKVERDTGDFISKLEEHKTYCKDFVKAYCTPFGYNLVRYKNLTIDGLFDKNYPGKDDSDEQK

B1: target 1 MT 5'PFS CCU 3'PFS CAU (mixed)
RNA 1: CACCCGUGCAAAAAUGCAGGGGUCUAAAACUGAGCGGAUAACCUCUCUAUGG
RNA 2: GGGAAUGGAUCCACAUCUACGAAUUCCCUCCAUAGAGAGGUUAUCCGCUCACAUAGAUCGGAAGAGCACACGU
B2: target 1 MT 5'PFS GAG 3'PFS UCA (mixed)
RNA 1: CACCCGUGCAAAAAUGCAGGGGUCUAAAACUGAGCGGAUAACCUCUCUAUGG
RNA 2: GGGAAUGGAUCCACAUCUACGAAUUCGAGCCAUAGAGAGGUUAUCCGCUCAUCAAGAUCGGAAGAGCACACGU
B3: target 1 insC 3' of 12,insG 3' of 4 (mixed)
RNA 1: CACCCGUGCAAAAAUGCAGGGGUCUAAAACUGAGCGGAUAACCUCUCUAUGG
RNA 2: GGGAAUGGAUCCACAUCUACGAAUUCGUACCAUAGAGAGGCUUAUCCGCGUCACCGAGAUCGGAAGAGCACACGU
B4: target 1 MT 5'PFS GAG 3'PFS UCG (mixed)
RNA 1: CACCCGUGCAAAAAUGCAGGGGUCUAAAACUGAGCGGAUAACCUCUCUAUGG
RNA 2: GGGAAUGGAUCCACAUCUACGAAUUCGAGCCAUAGAGAGGUUAUCCGCUCAUCGAGAUCGGAAGAGCACACGU
B5: target 1 MT 5'PFS AUG 3'PFS AUG (mixed)
RNA 1: CACCCGUGCAAAAAUGCAGGGGUCUAAAACUGAGCGGAUAACCUCUCUAUGG
RNA 2: GGGAAUGGAUCCACAUCUACGAAUUCAUGCCAUAGAGAGGUUAUCCGCUCAAUGAGAUCGGAAGAGCACACGU
B6: target 1 C4A,A18U (mixed)
RNA 1: CACCCGUGCAAAAAUGCAGGGGUCUAAAACUGAGCGGAUAACCUCUCUAUGG
RNA 2: GGGAAUGGAUCCACAUCUACGAAUUCGUACCAUUGAGAGGUUAUCCGAUCACCGAGAUCGGAAGAGCACACGU
B7: target 1 insC 3' of 12,insC 3' of 12 (mixed)
RNA 1: CACCCGUGCAAAAAUGCAGGGGUCUAAAACUGAGCGGAUAACCUCUCUAUGG
RNA 2: GGGAAUGGAUCCACAUCUACGAAUUCGUACCAUAGAGAGGCCUUAUCCGCUCACCGAGAUCGGAAGAGCACACGU
B8: target 1 MT 5'PFS GAG 3'PFS UCC (mixed)
RNA 1: CACCCGUGCAAAAAUGCAGGGGUCUAAAACUGAGCGGAUAACCUCUCUAUGG
RNA 2: GGGAAUGGAUCCACAUCUACGAAUUCGAGCCAUAGAGAGGUUAUCCGCUCAUCCAGAUCGGAAGAGCACACGU
B9: target 2 MT 5'PFS CGG 3'PFS CAC (mixed)
RNA 1: CACCCGUGCAAAAUUGCAGGGGUCUAAAACCUUCUCCAAAUUGUUUCAUCCU
RNA 2: GGGAAUGGAUCCACAUCUACGAAUUCCGGAGGAUGAAACAAUUUGGAGAAGCACAGAUCGGAAGAGCACACGU
B10: target 2 MT 5'PFS UGA 3'PFS AUA (mixed)
RNA 1: CACCCGUGCAAAAUUGCAGGGGUCUAAAACCUUCUCCAAAUUGUUUCAUCCU
RNA 2: GGGAAUGGAUCCACAUCUACGAAUUCUGAAGGAUGAAACAAUUUGGAGAAGAUAAGAUCGGAAGAGCACACGU
B11: target 2 MT 5'PFS UGA 3'PFS AUC (mixed)
RNA 1: CACCCGUGCAAAAUUGCAGGGGUCUAAAACCUUCUCCAAAUUGUUUCAUCCU
RNA 2: GGGAAUGGAUCCACAUCUACGAAUUCUGAAGGAUGAAACAAUUUGGAGAAGAUCAGAUCGGAAGAGCACACGU
B12: target 2 MT 5'PFS CGG 3'PFS CAG (mixed)
RNA 1: CACCCGUGCAAAAUUGCAGGGGUCUAAAACCUUCUCCAAAUUGUUUCAUCCU
RNA 2: GGGAAUGGAUCCACAUCUACGAAUUCCGGAGGAUGAAACAAUUUGGAGAAGCAGAGAUCGGAAGAGCACACGU
B13: target 2 MT 5'PFS CGG 3'PFS CAU (mixed)
RNA 1: CACCCGUGCAAAAUUGCAGGGGUCUAAAACCUUCUCCAAAUUGUUUCAUCCU
RNA 2: GGGAAUGGAUCCACAUCUACGAAUUCCGGAGGAUGAAACAAUUUGGAGAAGCAUAGAUCGGAAGAGCACACGU
B14: target 2 MT 5'PFS AUU 3'PFS CUA (mixed)
RNA 1: CACCCGUGCAAAAUUGCAGGGGUCUAAAACCUUCUCCAAAUUGUUUCAUCCU
RNA 2: GGGAAUGGAUCCACAUCUACGAAUUCAUUAGGAUGAAACAAUUUGGAGAAGCUAAGAUCGGAAGAGCACACGU
B15: target 2 MT 5'PFS CGG 3'PFS CAA (mixed)
RNA 1: CACCCGUGCAAAAUUGCAGGGGUCUAAAACCUUCUCCAAAUUGUUUCAUCCU
RNA 2: GGGAAUGGAUCCACAUCUACGAAUUCCGGAGGAUGAAACAAUUUGGAGAAGCAAAGAUCGGAAGAGCACACGU
B16: target 2 MT 5'PFS AGG 3'PFS AUC (mixed)
RNA 1: CACCCGUGCAAAAUUGCAGGGGUCUAAAACCUUCUCCAAAUUGUUUCAUCCU
RNA 2: GGGAAUGGAUCCACAUCUACGAAUUCAGGAGGAUGAAACAAUUUGGAGAAGAUCAGAUCGGAAGAGCACACGU
B17: target 2 MT 5'PFS UCG 3'PFS UCA (mixed)
RNA 1: CACCCGUGCAAAAUUGCAGGGGUCUAAAACCUUCUCCAAAUUGUUUCAUCCU
RNA 2: GGGAAUGGAUCCACAUCUACGAAUUCUCGAGGAUGAAACAAUUUGGAGAAGUCAAGAUCGGAAGAGCACACGU
B18: target 2 MT 5'PFS UAG 3'PFS AAU (mixed)
RNA 1: CACCCGUGCAAAAUUGCAGGGGUCUAAAACCUUCUCCAAAUUGUUUCAUCCU
RNA 2: GGGAAUGGAUCCACAUCUACGAAUUCUAGAGGAUGAAACAAUUUGGAGAAGAAUAGAUCGGAAGAGCACACGU
B19: target 2 MT 5'PFS UAG 3'PFS CCU (mixed)
RNA 1: CACCCGUGCAAAAUUGCAGGGGUCUAAAACCUUCUCCAAAUUGUUUCAUCCU
RNA 2: GGGAAUGGAUCCACAUCUACGAAUUCUAGAGGAUGAAACAAUUUGGAGAAGCCUAGAUCGGAAGAGCACACGU
B20: target 2 MT 5'PFS UAG 3'PFS AAC (mixed)
RNA 1: CACCCGUGCAAAAUUGCAGGGGUCUAAAACCUUCUCCAAAUUGUUUCAUCCU
RNA 2: GGGAAUGGAUCCACAUCUACGAAUUCUAGAGGAUGAAACAAUUUGGAGAAGAACAGAUCGGAAGAGCACACGU
B21: target 2 MT 5'PFS UAG 3'PFS AAG (mixed)
RNA 1: CACCCGUGCAAAAUUGCAGGGGUCUAAAACCUUCUCCAAAUUGUUUCAUCCU
RNA 2: GGGAAUGGAUCCACAUCUACGAAUUCUAGAGGAUGAAACAAUUUGGAGAAGAAGAGAUCGGAAGAGCACACGU
B22: target 2 MT 5'PFS AUU 3'PFS CUC (mixed)
RNA 1: CACCCGUGCAAAAUUGCAGGGGUCUAAAACCUUCUCCAAAUUGUUUCAUCCU
RNA 2: GGGAAUGGAUCCACAUCUACGAAUUCAUUAGGAUGAAACAAUUUGGAGAAGCUCAGAUCGGAAGAGCACACGU
B23: target 2 MT 5'PFS UGA 3'PFS AUU (mixed)
RNA 1: CACCCGUGCAAAAUUGCAGGGGUCUAAAACCUUCUCCAAAUUGUUUCAUCCU
RNA 2: GGGAAUGGAUCCACAUCUACGAAUUCUGAAGGAUGAAACAAUUUGGAGAAGAUUAGAUCGGAAGAGCACACGU
B24: target 2 MT 5'PFS UAG 3'PFS AAA (mixed)
RNA 1: CACCCGUGCAAAAUUGCAGGGGUCUAAAACCUUCUCCAAAUUGUUUCAUCCU
RNA 2: GGGAAUGGAUCCACAUCUACGAAUUCUAGAGGAUGAAACAAUUUGGAGAAGAAAAGAUCGGAAGAGCACACGU

These binders were tested against T1, EsCas13d, nuclease-dead (assay: crRNA (strand 1, pre-loaded); Mg2+; 40 mM Tris-HCl pH 7.5, 150 mM NaCl, 6 mM MgCl2, 1 mM DTT, 0.1% Tween-20, 0.2 mg/ml BSA; 25 C; 10 min per concentration, then washed). Conditions: tags: His6-TwinStrep-SUMO cleaved; N-terminal SNAP kept (SNAP-Surface 488); label: 3' end held by stalled T7 RNA polymerase.

Compared with B1, B2 is 3.5-fold higher in Kd: 13.5 ± 5.5 nM for the first, roughly 47.5 nM for the second. The first binds more tightly here.

First: B3
Second: B4
The Kd of the first is 7.4-fold lower: 5.7 ± 0.5 nM for the first, 42 ± 16 nM for the second.

First: B5
Second: B6
The Kd of the first is 2.3-fold higher: 49 ± 18 nM for the first, 21.1 ± 2.4 nM for the second.

Compared with B7, B8 is 3-fold higher in Kd: 18.3 ± 1.3 nM for the first, 55.5 ± 26.5 nM for the second.

B9 and B10 are within error of each other in Kd: 6.8 ± 1.3 nM for the first, 7.1 ± 1.4 nM for the second.

Going from B11 to B12, the Kd falls from 8.7 ± 1.1 nM to 4.3 ± 0.6 nM (2-fold).

First: B13
Second: B14
The Kd of the first is 3.2-fold lower: 4.4 ± 0.5 nM for the first, 14 ± 4 nM for the second.

First: B15
Second: B16
The Kd of the first is 1.6-fold lower: 3.4 ± 0.5 nM for the first, 5.5 ± 0.6 nM for the second.

Going from B17 to B18, the Kd falls from 21 ± 5 nM to 3.8 ± 0.5 nM (5.5-fold). The second binds more tightly here.

First: B19
Second: B20
The Kd of the first is 15-fold higher: 54 ± 17 nM for the first, 3.6 ± 0.4 nM for the second.

Compared with B21, B22 is 5.8-fold higher in Kd: 2.87 ± 0.28 nM for the first, 16.6 ± 3.1 nM for the second. The first binds more tightly here.

Going from B23 to B24, the Kd falls from 7.5 ± 1.3 nM to 2.2 ± 0.4 nM (3.4-fold). The second binds more tightly here.
